In PMC3688974:

Molecular target: HLA-A*02 molecules at the surface of T1 cells (human (endogenous in T1 cells))
Experiment: flow cytometry on cells; T1 cells pulsed with 20 µM NY_(157-165) peptide (three pulses, stability control; or freshly for 2 h, day control); HLA-A*02/NY_(157-165) complexes detected with a complex-specific F(ab) and a PE-conjugated second antibody 24, 48 and 96 h after the last loading

percent of the complexes of freshly peptide-pulsed T1 cells still detected: 64%
Substance: NY-ESO-1_(157-165) peptide (from UniProt P78358 157-165)
